# Reference: patent US20060257938A1, “Method of screening for drugs that block ligand binding to a lipid binding protein” (priority 2005, published 2006)
# Residue numbers refer to the chain shown, from its start.
# B1: 74Q 72A 73F (protein, listed as Rattus norvegicus)
# chain: AFDGTWKVDRNENYEKFMEKMGINVVKRKLGAHDNLKLTITQEGNKFTVKESSNFRNIDVVFELGVDFAYSAFQGTELTGTWTMEGNKLVGKFKRVDNGKELIAVREISGNELIQTYTYEGVEAKRIFKKE
# modifications: PEPTIDE (1)...(131) wild-type rat intestinal fatty acid binding protein
# B2: 72T 74S (protein, listed as Rattus norvegicus)
# chain: B1 chain with A72T, F73A, Q74S
# modifications: PEPTIDE (1)...(131) wild-type rat intestinal fatty acid binding protein
# B3: 38Y 117A 72A (protein, listed as Rattus norvegicus)
# chain: B1 chain with L38Y, F73A, Q74D, Y117A
# modifications: PEPTIDE (1)...(131) wild-type rat intestinal fatty acid binding protein
# B4: 14M 18L 31W 73I 117G 72A (protein, listed as Rattus norvegicus)
# chain: B1 chain with Y14M, M18L, G31W, F73I, Q74D, Y117G
# modifications: PEPTIDE (1)...(131) wild-type rat intestinal fatty acid binding protein
# B5: 72A 73P 74E (protein, listed as Rattus norvegicus)
# chain: B1 chain with F73P, Q74E
# modifications: PEPTIDE (1)...(131) wild-type rat intestinal fatty acid binding protein
# B6: 18I 31Y 72A (protein, listed as Rattus norvegicus)
# chain: B1 chain with M18I, G31Y, F73A, Q74D
# modifications: PEPTIDE (1)...(131) wild-type rat intestinal fatty acid binding protein
# B7: 14R 18L 73L 117D 72A (protein, listed as Rattus norvegicus)
# chain: B1 chain with Y14R, M18L, F73L, Q74D, Y117D
# modifications: PEPTIDE (1)...(131) wild-type rat intestinal fatty acid binding protein
# B8: 72T 73G 74I (protein, listed as Rattus norvegicus)
# chain: B1 chain with A72T, F73G, Q74I
# modifications: PEPTIDE (1)...(131) wild-type rat intestinal fatty acid binding protein
# B9: 72A 74N (protein, listed as Rattus norvegicus)
# chain: B1 chain with F73A, Q74N
# modifications: PEPTIDE (1)...(131) wild-type rat intestinal fatty acid binding protein
# B10: 72T 73I 74A (protein, listed as Rattus norvegicus)
# chain: B1 chain with A72T, F73I, Q74A
# modifications: PEPTIDE (1)...(131) wild-type rat intestinal fatty acid binding protein
# B11: 72S 74A (protein, listed as Rattus norvegicus)
# chain: B1 chain with A72S, F73A, Q74A
# modifications: PEPTIDE (1)...(131) wild-type rat intestinal fatty acid binding protein
# B12: 14L 18L 31S 73W 117V 72A (protein, listed as Rattus norvegicus)
# chain: B1 chain with Y14L, M18L, G31S, F73W, Q74D, Y117V
# modifications: PEPTIDE (1)...(131) wild-type rat intestinal fatty acid binding protein
# B13: 14R 18L 31S 73F 117E 72A (protein, listed as Rattus norvegicus)
# chain: B1 chain with Y14R, M18L, G31S, Q74D, Y117E
# modifications: PEPTIDE (1)...(131) wild-type rat intestinal fatty acid binding protein
# B14: 72E 73V 74A (protein, listed as Rattus norvegicus)
# chain: B1 chain with A72E, F73V, Q74A
# modifications: PEPTIDE (1)...(131) wild-type rat intestinal fatty acid binding protein
# B15: 18V 31V 73I 72A (protein, listed as Rattus norvegicus)
# chain: B1 chain with M18V, G31V, F73I, Q74D
# modifications: PEPTIDE (1)...(131) wild-type rat intestinal fatty acid binding protein
# B16: 38H 62W 106V 117A 72A (protein, listed as Rattus norvegicus)
# chain: B1 chain with L38H, F62W, F73A, Q74D, R106V, Y117A
# modifications: PEPTIDE (1)...(131) wild-type rat intestinal fatty acid binding protein
# B17: 18I 31Y 73G 72A (protein, listed as Rattus norvegicus)
# chain: B1 chain with M18I, G31Y, F73G, Q74D
# modifications: PEPTIDE (1)...(131) wild-type rat intestinal fatty acid binding protein
# B18: 18I 31M 55M 72A (protein, listed as Rattus norvegicus)
# chain: B1 chain with M18I, G31M, F55M, F73A, Q74D
# modifications: PEPTIDE (1)...(131) wild-type rat intestinal fatty acid binding protein
# B19: 18V 31A 55I 72A (protein, listed as Rattus norvegicus)
# chain: B1 chain with M18V, G31A, F55I, F73A, Q74D
# modifications: PEPTIDE (1)...(131) wild-type rat intestinal fatty acid binding protein
# B20: 72S 73V 74A (protein, listed as Rattus norvegicus)
# chain: B1 chain with A72S, F73V, Q74A
# modifications: PEPTIDE (1)...(131) wild-type rat intestinal fatty acid binding protein
# Assay: Probe fluorescence ratio response to stearic acid relative to ADIFAB2
# Format: binding
# Settings: response relative to ADIFAB2
# How it was run: (§1)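 Each fatty acid's response was expressed relative to ADIFAB2, the rI-FABP-L72A probe, as ΔR/ΔRreference. ΔR is the change in the background-corrected two-wavelength intensity ratio R=Fλ1/Fλ2 from its analyte-free baseline R0. Emission was read near about 420-480 nm for unbound and about 495-580 nm for FFA-bound probe.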
row,Molecule,DR/DR SA
1,B1,0.177
2,B2,1.779
3,B3,1.201
4,B4,0.487
5,B5,1.512
6,B6,0.994
7,B7,0.213
8,B8,1.755
9,B9,1.299
10,B10,1.359
11,B11,1.114
12,B12,0.329
13,B13,0.378
14,B14,0.234
15,B15,0.311
16,B16,0.947
17,B17,0.860
18,B18,0.296
19,B19,0.420
20,B20,1.572

# Assay: Probe fluorescence ratio response to palmitic acid relative to ADIFAB2
# Format: binding
# Settings: response relative to ADIFAB2
# How it was run: as §1
row,Molecule,DR/DR PA
1,B1,0.649
2,B2,2.209
3,B3,0.933
4,B4,0.998
5,B5,1.732
6,B6,1.762
7,B7,0.294
8,B8,2.177
9,B9,1.308
10,B10,1.687
11,B11,1.615
12,B12,0.692
13,B13,0.693
14,B14,0.736
15,B15,1.302
16,B16,1.002
17,B17,1.886
18,B18,1.099
19,B19,1.280
20,B20,2.601

# Assay: Probe fluorescence ratio response to palmitoleic acid relative to ADIFAB2
# Format: binding
# Settings: response relative to ADIFAB2
# How it was run: as §1
row,Molecule,DR/DR POA
1,B1,1.479
2,B2,2.471
3,B3,0.839
4,B4,1.569
5,B5,2.087
6,B6,2.639
7,B7,0.801
8,B8,2.771
9,B9,1.536
10,B10,2.320
11,B11,2.034
12,B12,1.356
13,B13,1.290
14,B14,1.093
15,B15,1.334
16,B16,1.145
17,B17,2.637
18,B18,1.353
19,B19,1.563
20,B20,2.727

# Assay: Probe fluorescence ratio response to linoleic acid relative to ADIFAB2
# Format: binding
# Settings: response relative to ADIFAB2
# How it was run: as §1
row,Molecule,DR/DR LA
1,B1,0.711
2,B2,2.469
3,B3,1.869
4,B4,2.034
5,B5,1.741
6,B6,2.790
7,B7,1.766
8,B8,2.577
9,B9,1.681
10,B10,1.795
11,B11,2.037
12,B12,1.569
13,B13,1.947
14,B14,0.735
15,B15,1.151
16,B16,1.337
17,B17,2.559
18,B18,1.134
19,B19,1.334
20,B20,2.397

# Assay: Probe fluorescence ratio response to arachidonic acid relative to ADIFAB2
# Format: binding
# Settings: arachidonic acid; response relative to ADIFAB2
# How it was run: as §1
row,Molecule,DR/DR AA
1,B1,0.465
2,B2,2.035
3,B3,2.216
4,B4,2.032
5,B5,1.975
6,B6,2.205
7,B7,1.029
8,B8,2.226
9,B9,1.614
10,B10,2.148
11,B11,1.648
12,B12,1.458
13,B13,1.241
14,B14,0.478
15,B15,0.863
16,B16,2.007
17,B17,1.796
18,B18,1.010
19,B19,0.989
20,B20,2.127

# Assay: Probe fluorescence ratio response to linolenic acid relative to ADIFAB2
# Format: binding
# Settings: response relative to ADIFAB2
# How it was run: as §1
row,Molecule,DR/DR LNA
1,B1,1.025
2,B2,2.621
3,B3,1.547
4,B4,1.869
5,B5,1.863
6,B6,2.813
7,B7,1.790
8,B8,2.317
9,B9,1.701
10,B10,1.944
11,B11,2.002
12,B12,1.631
13,B13,2.296
14,B14,0.784
15,B15,1.531
16,B16,1.796
17,B17,2.706
18,B18,1.358
19,B19,1.580
20,B20,2.330

# Assay: Probe fluorescence ratio response to oleic acid relative to ADIFAB2
# Format: binding
# Settings: response relative to ADIFAB2
# How it was run: as §1
row,Molecule,DR/DR OA
1,B1,0.390
2,B2,2.252
3,B3,1.976
4,B4,1.712
5,B5,1.802
6,B6,2.096
7,B7,0.847
8,B8,2.414
9,B9,1.629
10,B10,1.721
11,B11,1.575
12,B12,1.208
13,B13,1.146
14,B14,0.524
15,B15,0.670
16,B16,1.239
17,B17,1.632
18,B18,0.601
19,B19,0.791
20,B20,2.295
